This series deals with MS2 coat protein. Put plainly: apparent KD of MS2 coat protein; designed switch direction (-1 OFF switch, 1 ON switch): -1; higher = weaker reporter binding. A digest of the protocol: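 Normalised cluster fluorescence was curve-fitted, and each design's median over clusters is its apparent KD. Before this, SNAP-549-labelled MS2 coat protein was titrated from 0.7 or 1.5 nM, doubling to 3 µM, over RNA switches transcribed on Illumina chips by stalled E. coli RNA polymerase. Titrations had no input, 200 uM small-molecule ligand, or an oligonucleotide input, and steps lasted 0.8–1.5 h (lowest) to 10–20 min (highest).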

Setting [1] is: Eterna round: R95, input ligand: FMN 200 uM.
Where [2] appears, read: Eterna round: R95, input ligand: microRNA oligo, concentration not stated.
The mark [3] stands for this setting: Eterna round: R95, input ligand: none.
Setting [4] is: input ligand: microRNA oligo, concentration not stated.

The results in this text go back to the supplement of paper PMC9170038.

“GCUUGGCGAGGAUAUACAUGAGGAUCACCCAUGUGAGAGAAAUAAGUGAGGAAGAAAAGUAGAAGGCGCUGAGG [Mat - Exclusion 3 - Mod of Salish D59] (puzzle: Exclusion 3)”: the “apparent KD of MS2 coat protein” value came out at 167 nM under setting [1], 58.9 nM under setting [2] and 61 nM under setting [3].
In the case of “UUAGUGUUAGGAUAUCCGGCUCCAAGGCACCAAAACCGGGCGGAGAAGGAACAUGAGGAUCACCCAUGUGACCA [Eternabot (Original) Solution 31] (Eterna round: R97, puzzle: Exclusion 4)”, the “apparent KD of MS2 coat protein” value turned out to be 53.7 nM (input ligand: FMN 200 uM) and 49.1 nM (input ligand: none).
As for “AUCUGCACGCUGCGGUCCUACAUGAGGAUCACCCAUGUGGUCUGGUGGCGUGGGUCGCCGGACUUGGCUCGUCUUGA [salish99_S_TOV1_R5_043] (Eterna round: R97, puzzle: Sensor, turn-off variant 1)”, the “apparent KD of MS2 coat protein” value (input ligand: FMN 200 uM) came out at 18.1 nM and the “apparent KD of MS2 coat protein” value (input ligand: none) is 18.1 nM.
Regarding “AAUAACAAGCCGAUCCUUAACAUGAGGAUCACCCAUGUGCUCGUCUUGUAAAGUACUAUCACGAAAGUGAUAGUACA (Eterna round: R97, puzzle: Sensor, turn-off variant 1)”, the “apparent KD of MS2 coat protein” value stood at 25.1 nM (input ligand: FMN 200 uM) and 22.7 nM (input ligand: none).
As for “UUUUUGUGAGGAUAUCAGUAGUAGAACAAUAGUACUACUACUGAGAAGGCACAUGAGGAUCACCCAUGUUUCUC [Fiskers Ex 4 Super stable 44 mod 10] (puzzle: Exclusion 4)”, the “apparent KD of MS2 coat protein” value under setting [2] came to 43.3 nM.
In the case of “ACAAGCUUGUAAUCAUUUAACAUGAGGAUCACCCAUGUAAAUGGAAGAACCAAUUUGAUAUGAUUUACUCGUCUUAU [JR_STOV1_Sub009] (Eterna round: R97, puzzle: Sensor, turn-off variant 1)”, the “apparent KD of MS2 coat protein” value (input ligand: FMN 200 uM) was found to be 257 nM and the “apparent KD of MS2 coat protein” value (input ligand: none) worked out at 267 nM.
Regarding “AGGAGACAUGAGGAUCACCCAUGUAAGGAUAUGUAGGAGCAGCCGGCUGGUUCGCUCCGCAGAAGGUGCGCGGU [Eternabot (L2) Solution 11] (Eterna round: R97, puzzle: Exclusion 1)”, the “apparent KD of MS2 coat protein” value turned out to be 49.3 nM (input ligand: FMN 200 uM) and 41.3 nM (input ligand: none).
For the sequence “GAAAAGUAAGGAUAUGUCCACAGUGAGGAAACUCACUGUGGACAGAAGGUACAUGAGGAUCACCCAUGUUUCUC [ExDelusion 3 - Jieux - Exclusion 4] (Eterna round: R97, puzzle: Exclusion 4)”, the “apparent KD of MS2 coat protein” value was determined as 213 nM (input ligand: FMN 200 uM) and 39 nM (input ligand: none).
As for “AAUAAGCUAGGAUAUACAUGAGGAUCACCCAUGUGAGGGCACGGCCGGCGCGUUUCCGGUAGAAGGAGUCAUAA [Exc;s3-VII] (puzzle: Exclusion 3)”, the “apparent KD of MS2 coat protein” value under setting [2] came out at 33.2 nM.
As for “UUUCUACAUGUAGGAUAUGCGUGGCGAAGCUAUGCAGAAGGACAUGAGGAUCACCCAUGUUUUAGCGUCUGCGUACAGAUGCGU [JL ENG1 1.49] (Eterna round: R96, puzzle: Exclusion NG 1)”, the “apparent KD of MS2 coat protein” value came to 60.9 nM (input ligand: FMN 200 uM), 16.2 nM under setting [4] and 20.6 nM (input ligand: none).
With “CUCUGCACGCUGCGGUCCUACAUGAGGAUCACCCAUGUGGUCUGGUGGCGUGGGUCGCCGGACUUGGCUCGUCUUGG [salish99_S_TOV1_R5_047] (Eterna round: R97, puzzle: Sensor, turn-off variant 1)”, the “apparent KD of MS2 coat protein” value runs as follows: (input ligand: FMN 200 uM) 15.4 nM; (input ligand: none) 15.8 nM.
For “CCGUUGCUAGGAUAUACAUGAGGAUCACCCAUGUUUGAUCCAGCGAGUCAAUCCGCUUGUAGAAGGAGUUACAC [EX3 C.9] (Eterna round: R97, puzzle: Exclusion 3)”, the “apparent KD of MS2 coat protein” value reads like this: (input ligand: FMN 200 uM) 25.3 nM; (input ligand: none) 26.4 nM.
The like results for “AGCUUUUUGUUCGUCUUACACAUGAGGAUCACCCAUGUGUUGGACCGCAUCGAUAGAUGUAGACCGAGAAGCAUGGG [Omdei Mir OFFv1 C8] (Eterna round: R97, puzzle: Sensor, turn-off variant 1)” were, in that order, 24.5 nM and 23.8 nM.
Take “AAGAAACGAGGAUAUACAAUUAAGAGAGAGAAGGAAAUGAGACAUGAGGAUCACCCAUGUAGAAGGCGUAAGAG [JR_Exclu2_Sub083] (puzzle: Exclusion 2)”: the “apparent KD of MS2 coat protein” value is 28 nM under setting [1], 31.5 nM under setting [2] and 28.2 nM under setting [3].
For the sequence “GGUGGACAUGAGGAUCACCCAUGUGAGGAUAUCGGCUGGCUAGCGGCGGACGGCUUCUCGAGAAGGCGCAUUGU [Exclusion 1 V83] (Eterna round: R96, puzzle: Exclusion 1)”, the “apparent KD of MS2 coat protein” value turned out to be 68.8 nM (input ligand: FMN 200 uM), 42.2 nM under setting [4] and 64.5 nM (input ligand: none).
On to “GGCAUGUAAGGAUAUCUAUCGGUGAGAAAACCAAUUGGGCAAGAGAAGGUACAUGAGGAUCACCCAUGUGGACC [Eternabot (L1) Solution 9] (Eterna round: R97, puzzle: Exclusion 4)”, for which the “apparent KD of MS2 coat protein” value (input ligand: FMN 200 uM) amounted to 135 nM and the “apparent KD of MS2 coat protein” value (input ligand: none) turned out to be 44 nM.
In the case of “GAGAGGUCAGGAUAUACGGAGAGAGAGAGUAGGUGAGGGUAACAUGAGGAUCACCCAUGUAGAAGGGACUAAGG [JR_Exclu2_Sub075] (puzzle: Exclusion 2)”, the “apparent KD of MS2 coat protein” value was 51.7 nM under setting [1], 48.4 nM under setting [2] and 46.3 nM under setting [3].
Turning to “ACUUACUGAGGAUAUACAUAGAUUUACAUGAGGAUCACCCAUGUUCCUCUUUGUAUAAAUGUAGAAGGCAGAAGAA [Mat - Exclusion 5 - JL Mod - D58] (Eterna round: R97, puzzle: Exclusion 5)”, the “apparent KD of MS2 coat protein” value was 177 nM (input ligand: FMN 200 uM) and 93.6 nM (input ligand: none).
The like results for “GUCCUUUCUGAGGAUAUUAUCCUUUUCGAUUGAUAAGAAGGCAGUACAUGAGGAUCACCCAUGUGGGUUGUCUG [Polaris30] (Eterna round: R97, puzzle: Exclusion 6)” were, in that order, 45.8 nM and 38.2 nM.
On to “CUCAUGUGAGGAUAUGUGAUCAACCUUCUGUAUAGAUGAUUACAGAAGGCACAUGAGGAUCACCCAUGUAGAUC [Ex4 - 3 - 22] (puzzle: Exclusion 4)”, for which the “apparent KD of MS2 coat protein” value under setting [2] was 91.6 nM.
As for “UAUAUAUAGUAAGGAUAUGUAUAUAUUUUACAAACAGAAGGUACUGACAUGAGGAUCACCCAUGUUUUAGUGUGGGCAUGUAGA [JMF's solution 68] (Eterna round: R96, puzzle: Exclusion NG 1)”, the “apparent KD of MS2 coat protein” value under setting [4] worked out at 43.3 nM.
With “AAGAGGUCAGGAUAUUGGGCGGAAAGGGAAAGGAAAGGGCCCAAGAAGGGACAUGAGGAUCACCCAUGUAAGAA [Excls4-I] (puzzle: Exclusion 4)”, the “apparent KD of MS2 coat protein” value stood at 38.5 nM under setting [1], 33 nM under setting [2] and 35.4 nM under setting [3].
As for “AAUUAAACAAGCAGAUCCCACAUGAGGAUCACCCAUGUGCUCGUCUUAUAAGGUACUGUGACAAAAGUCACGGUACC [Mat - Sensor, turn-off var - Eli Mod - D67] (Eterna round: R97, puzzle: Sensor, turn-off variant 1)”, the “apparent KD of MS2 coat protein” value is, setting by setting: (input ligand: FMN 200 uM) 47.9 nM; (input ligand: none) 51.7 nM.
For the sequence “CUGGUGUGAGGAUAUCAGGGCACGCCCAAGGGCGUACCAAAUGAGAAGGCACAUGAGGAUCACCCAUGUGGGAC [Lasoena] (puzzle: Exclusion 4)”, the “apparent KD of MS2 coat protein” value under setting [2] was 32 nM.
On to “GAGCAGCGAGGAUAUACCUGGACCUGGUCCCAGGCCGAUCAACUUGAGGAUCACCCAAGUAGAAGGCGUGGCUC [Ceortiti] (Eterna round: R97, puzzle: Exclusion 2)”, for which the “apparent KD of MS2 coat protein” value is 322 nM (input ligand: FMN 200 uM) and 401 nM (input ligand: none).
As to “CACGAAGAGUGAGGAUAUGUGCGACAAAGUUGCACAGAAGGCACAUGAGGAUCACCCAUGUAAGCUAGGUCGAAAGACCUAGCG [Omei Exc(NG)1 Av3] (Eterna round: R96, puzzle: Exclusion NG 1)”, the “apparent KD of MS2 coat protein” value is, setting by setting: (input ligand: FMN 200 uM) 47.5 nM; under setting [4], 20.2 nM; (input ligand: none) 23.8 nM.
Take “GUCAUCGCAGGAUAUUAGAGUUUUUACAUGAGGAUCACCCAUGUUAAUUGGGUUAAUGUCUAAGAAGGGCGAUGAA [JR_EX5_Sub013] (Eterna round: R97, puzzle: Exclusion 5)”: the “apparent KD of MS2 coat protein” value runs as follows: (input ligand: FMN 200 uM) 126 nM; (input ligand: none) 67.4 nM.
Regarding “CAGUACUGAGGAUAUACAUGAGGAUCACCCAUGUGUCCUAGCUAGGAAACUAGCAUUAGUAGAAGGCAGUACUG [Fiskers Ex 3 828 mod 6] (puzzle: Exclusion 3)”, the “apparent KD of MS2 coat protein” value under setting [2] turned out to be 22.1 nM.
As to “GCACGGAGUGUAGGAUAUCUGUGCGAUUAGCUCAGAGAAGGACACAUGAGGAUCACCCAUGUGUUCCACGGAAACGUACCGUGC [Eli exng1 - 050] (Eterna round: R96, puzzle: Exclusion NG 1)”, the “apparent KD of MS2 coat protein” value reads like this: (input ligand: FMN 200 uM) 11.2 nM; under setting [4], 8.87 nM; (input ligand: none) 12.5 nM.
Take “CCUCGACGGUAGGAUAUCGUCAAACUAUUGUGAUGAGAAGGACUGACAUGAGGAUCACCCAUGUUAACGUGAUG [Exclusion 6 - 7:a] (puzzle: Exclusion 6)”: the “apparent KD of MS2 coat protein” value under setting [2] is 14.8 nM.
On to “CGUUAGUGAGGAUAUGGAAAUAGGUACAUGAGGAUCACCCAUGUUUGAAGGGAAAAGAGCCUAGAAGGCACUAACG [JR_Ex5_Sub055] (Eterna round: R97, puzzle: Exclusion 5)”, for which the “apparent KD of MS2 coat protein” value was found to be 23.5 nM (input ligand: FMN 200 uM) and 35.2 nM (input ligand: none).
For “UUUAAUUUUUUUUUUUUACAAGCUUUUUGCUCGUCUUAUACAUGAGGAUCACCCAUGUAGAUGGAGGGUAAAUUAUC [JMF 86] (puzzle: Sensor v3, turn-off variant 2)”, the “apparent KD of MS2 coat protein” value runs as follows: under setting [1], 17.4 nM; under setting [2], 27.9 nM; under setting [3], 14.5 nM.
